Assay results published in the supplement of paper PMC10567573.

B1: POMT2 (parent)
chain: YHEAPMTRKHYQVTGYGINGTGDS
B2: DVL3 (parent)
chain: YNPHPGFPELGYSYGGGSASSQHS

Variants of: B1
Assay: protein stability index of a GFP-peptide fusion (GPS, HEK-293T) (PSI 1-6); higher = more stable
Conditions: c terminus: a fixed tail appended
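Further: lentivirally expressed fusions sorted by FACS into six bins by GFP to DsRed ratio, PSI derived from sequencing read proportions per bin multiplied by bin number.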

Protein stability index: each site, then its substitutions
D23: F 1.63; P 2.02; V 2.42; L 1.95; R 1.25; K 1.99; W 1.24; T 1.85; N 2.17; H 2.03; G 2.88; M 1.66; S 2.14; E 2.11; C 2.22; A 2.02; Q 2.44; Y 1.67; I 2.18
G22: A 2.26; E 2.35; Q 2.28; T 1.95; K 2.29; F 2.3; W 1.7; S 2.36; L 2.28; Y 2.15; I 1.68; V 2.25; H 2.44; P 3.15; C 1.91; R 1.92; D 2.17; N 2.18; M 2.04
G20: A 2.45; T 2.43; F 2.35; P 2.24; H 2.26; S 2.36; D 2.18; M 1.98; V 1.98; W 2.12; C 1.86; Y 2.39; N 2.47; R 2.16; K 2.08; L 2.21; E 2.4; I 2.03; Q 2.43
S24: K 2.57; I 2.16; E 2.29; M 1.79; C 1.81; R 2.17; V 2.44; F 1.76; H 1.99; W 1.49; N 2.11; Y 2.1; Q 1.68; G 2.57; T 1.98; A 2.15; P 2.23; D 2.41; L 1.64
N19: V 2.03; Y 2.57; L 2.06; E 1.9; S 2.3; R 1.73; C 2.02; M 2.62; G 2.4; P 2.4; A 1.8; W 2.24; F 2.3; I 1.9; Q 1.84; T 2.21; H 2.25; K 2.44; D 1.88
I18: A 2.73; Q 2.9; N 2.42; R 2.55; M 2.3; D 2.9; E 2.95; W 1.67; P 2.36; C 2.37; F 2.47; S 2.22; T 2.42; K 2.78; Y 2.07; V 2.21; G 2.2; L 2.64; H 2.47
T21: Y 1.76; R 2.6; N 2.58; D 2.46; L 2.1; K 2.3; A 2.56; S 2.19; W 2.15; P 2.25; E 2.04; G 1.83; H 2.23; F 2.11; C 2.4; Q 2.12; I 1.37; V 1.37; M 2.01
Y16: T 2.53; P 2.92; E 3.3; F 1.75; I 2.47; S 2.67; R 3.36; H 2.79; N 2.43; Q 2.26; W 1.75; K 3.2; G 2.9; L 1.97; V 2.47; M 2.3
G17: D 2.51; T 2.24; L 2.5; R 2.37; W 2.6; K 2.13; F 1.79; P 2.87; S 1.62; Q 1.75; E 2.73; N 2.03; M 1.84; A 1.9; H 2.06; Y 2.26; I 1.84; V 2.08; C 2.41

Variants of: B2
Assay: as above
Conditions: c terminus: a fixed tail appended

Protein stability index, by site and new letter:
H4: W 2.44; C 2.58; I 2.51; L 2.77; E 2.7; N 2.73; D 3.9; V 2.75; S 2.1; T 2.34; G 2.01; Q 2.56; Y 2.35; F 2.16; P 2.29; A 2.06; R 2.8; M 2.69; K 3.61
P8: Q 2.67; K 2.38; E 3.16; A 2.37; R 2.7; D 3.37; N 3; T 3.11; G 3.26; W 2.48; L 2.12; V 2.57; F 2.23; M 2.52; S 2.73; H 2.38; Y 2.33; C 2.54; I 1.71
P3: G 2.19; R 3.17; Y 3.18; C 3.32; S 2.67; E 2.75; Q 3.05; T 3.08; H 2.95; A 3.07; I 2.86; K 3.43; F 2.7; V 3.08; L 3.46; M 3.01; D 2.81; W 2.51; N 2.79
E9: G 2.16; P 3.58; S 1.59; C 2.5; H 2.19; M 2.69; N 2.46; K 1.8; D 2.11; R 2.44; A 2.3; L 3.13; I 1.18; T 1.84; Q 2.04
Y1: S 3.75; L 3.88; I 3; N 4.11; C 2.33; G 4.47; D 4.18; W 3.49; R 3.52; E 4.73; H 3.39; F 2.16; T 4.25; V 3.12; M 3.37; A 4.36; Q 4.53; P 4.24; K 3.94
F7: V 3.01; G 3; A 2.6; T 3.44; M 3.19; K 3.68; E 2.7; H 2.98; R 2.86; P 3.44; L 3.35; D 2.44; Y 2.68; Q 3.23; I 2.87; C 2.85; W 2.14; N 3.38; S 2.59
P5: W 2.2; L 2.59; N 2.75; T 2.36; R 2.37; E 3.27; K 2.31; D 3.67; V 2.41; G 2.32; C 2.22; A 2.58; F 2.44; M 2.31; Q 3.26; I 2.4; S 2.64; Y 2.35; H 2.36
N2: L 2.16; C 2.12; S 2.72; T 2.23; I 2.37; P 1.97; G 3.06; V 1.82; D 3.64; Q 2.33; A 1.96; M 2.55; R 3.09; Y 2.87; E 3.75; H 3.33; K 3.28; W 2.48; F 2.32
G6: V 2.7; A 2.78; M 2.74; C 2.53; F 2.42; Q 3.44; K 3.05; E 3.84; Y 2.17; S 2.69; R 2.46; H 2.67; L 2.48; I 2.38; W 1.74; D 3.14; T 2.28; N 2.93
